Data from PMC5691135, “The semiquinone swing in the bifurcating electron transferring flavoprotein/butyryl-CoA dehydrogenase complex from Clostridium difficile” (Nature Communications, 2017).

Molecular target: the molecule itself
Experiment: crystal structure; X-ray structure of the co-produced and co-purified (EtfAB/Bcd)4 complex at 3.1 Å, D state; crystallised in 0.1 M calcium acetate, 14 % (v/v) PEG 400, 0.1 M MES, pH 6.5; protein at 20 mg/ml in 10 mM MOPS and 1 mM FAD, pH 7.0

B1: Butyryl-CoA dehydrogenase (Bcd) of the EtfAB/Bcd complex from Clostridium difficile (enzyme)
chain: MDLNSKKYQMLKELYVSFAENEVKPLATELDEEERFPYETVEKMAKAGMMGIPYPKEYGGEGGDTVGYIMAVEELSRVCGTTGVILSAHTSLGSWPIYQYGNEEQKQKFLRPLASGEKLGAFGLTEPNAGTDASGQQTTAVLDGDEYILNGSKIFITNAIAGDIYVVMAMTDKSKGNKGISAFIVEKGTPGFSFGVKEKKMGIRGSATSELIFEDCRIPKENLLGKEGQGFKIAMSTLDGGRIGIAAQALGLAQGALDETVKYVKERVQFGRPLSKFQNTQFQLADMEVKVQAARHLVYQAAINKDLGKPYGVEAAMAKLFAAETAMEVTTKAVQLHGGYGYTRDYPVERMMRDAKITEIYEGTSEVQRMVISGKLLK
notes: Butyryl-CoA dehydrogenase of Clostridium difficile DSM 1296 (ATCC 9689), gene bcd (CD 1054); N-terminal helical domain 1-116, medial β-sheet domain 117-227, C-terminal helical domain 228-378; Tetramer that forms the core of the (EtfAB/Bcd)4 complex; also called Bcd1; Bcd2
stoichiometry N: 4
